In US20180133288A1 (ILDONG PHARM, published 2018):

T1: semaphorin 3A (UniProt Q14563 21-771, limits assumed)
T1 construct: also called Sema3A; Sema3A ligand
T1 sequence (looked up): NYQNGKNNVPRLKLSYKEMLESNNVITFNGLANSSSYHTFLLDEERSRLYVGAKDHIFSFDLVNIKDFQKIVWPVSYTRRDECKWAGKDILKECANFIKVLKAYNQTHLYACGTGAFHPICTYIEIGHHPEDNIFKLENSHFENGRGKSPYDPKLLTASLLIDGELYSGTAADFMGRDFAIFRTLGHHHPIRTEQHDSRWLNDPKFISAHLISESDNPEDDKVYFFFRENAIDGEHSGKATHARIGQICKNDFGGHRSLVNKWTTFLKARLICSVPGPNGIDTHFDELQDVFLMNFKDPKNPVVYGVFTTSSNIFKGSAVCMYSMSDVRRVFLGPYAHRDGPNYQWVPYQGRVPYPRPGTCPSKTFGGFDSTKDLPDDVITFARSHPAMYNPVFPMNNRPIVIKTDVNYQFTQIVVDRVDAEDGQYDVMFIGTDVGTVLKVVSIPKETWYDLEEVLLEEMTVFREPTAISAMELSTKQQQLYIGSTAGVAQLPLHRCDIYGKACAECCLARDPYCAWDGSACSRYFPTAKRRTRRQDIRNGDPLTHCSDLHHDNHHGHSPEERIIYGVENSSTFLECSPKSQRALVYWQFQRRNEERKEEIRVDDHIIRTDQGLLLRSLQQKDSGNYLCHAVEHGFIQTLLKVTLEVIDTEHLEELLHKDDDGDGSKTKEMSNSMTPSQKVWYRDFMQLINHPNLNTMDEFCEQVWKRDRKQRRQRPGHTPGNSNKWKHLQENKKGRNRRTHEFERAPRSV

B1: VEGF165 (ligand, UniProt P15692-4 27-191, looked up)
chain: APMAEGGGQNHHEVVKFMDVYQRSYCHPIETLVDIFQEYPDEIEYIFKPSCVPLMRCGGCCNDEGLECVPTEESNITMQIMRIKPHQGQHIGEMSFLQHNKCECRPKKDRARQENPCGPCSERRKHLFVQDPQTCKCSCKNTDSRCKARQLELNERTCRCDKPRR
B2: neuropilin 1 receptor (receptor, UniProt O14786 273-586, looked up)
chain: FKCMEALGMESGEIHSDQITASSQYSTNWSAERSRLNYPENGWTPGEDSYREWIQVDLGLLRFVTAVGTQGAISKETKKKYYVKTYKIDVSSNGEDWITIKEGNKPVLFQGNTNPTDVVVAVFPKPLITRFVRIKPATWETGISMRFEVYGCKITDYPCSGMLGMVSGLISDSQITSSNQGDRNWMPENIRLVTSRSGWALPPAPHSYINEWLQIDLGEEKIVRGIIIQGGKHRENKVFMRKFKIGYSNNGSDWKMIMDDSKRKAKSFEGNNNYDTPELRTFPALSTRFIRIYPERATHGGLGLRMELLGCEVE
notes: The construct is not defined; The same entry is used for the SPR and ELISA experiments; also called NRP1; NRP 1

Tests used:
neuropilin 1 receptor = target: B2; experiment: SPR (Biacore 2000), neuropilin 1 domain fixed on CM5 chip, VEGF165 as analyte 80 nM to 5 nM
Method: (§1) First, the affinity to a neuropilin receptor was performed on neuropilin 1 (NRP 1). Specifically, surface plasmon resonance (SPR) was performed using Biacore 2000 (GE Healthcare) in order to investigate the binding ability of TPP to the neuropilin 1 domain. Specifically, each neuropilin 1 domain was diluted in 10 mM Na-acetate buffer (pH 4.0), and fixed on CMS sensor chip (GE Healthcare, USA) at about 1,000 response units (RU). […] After the association/dissociation analysis, the CMS chip was regenerated by allowing buffer (20mM NaOH, 1M NaCl, pH 10.0) to flow at a flow rate of 30 μl/min for 1 minute.

semaphorin 3A = target: T1, semaphorin 3A; experiment: SPR (Biacore 2000), neuropilin 1 domain fixed on CM5 chip, semaphorin 3A as analyte 1 uM to 62.5 nM
Method: as §1

Binder | Kd (neuropilin 1 receptor) [nM] | Kd (semaphorin 3A) [nM]
B1 | 3.51 | –
B2 | – | 27.9
